This note sets out measurements from the supplement of paper PMC5998384.

In data set [1] the test system is HeLa Kyoto. The experiment in a line: solubility change mitosis vs G1/S (difference of NP-40 vs SDS log2 ratios) (log2 ratio difference); higher = more soluble in mitosis.
Data set [2] deals with HeLa Kyoto. The experiment in a line: melting temperature (median over replicates), in situ; higher = more thermally stable.
In data set [3] the test system is HeLa Kyoto. The experiment in a line: solubility in G1/S (NP-40 vs SDS abundance) (log2 ratio); higher = more soluble. The conditions noted are these: cell cycle stage: G1/S.
The subject of data set [4] is HeLa Kyoto. The experiment in a line: thermal stability score vs G1/S (z-score of summed log2 fold changes over temperatures); higher = more thermally stable than in G1/S.
[5] abbreviates: cell cycle stage: early G1 (4.5 h after nocodazole release).
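Throughout, for melting temperature (median over replicates), in situ: HeLa Kyoto cells synchronized by double thymidine or nocodazole block, proteins quantified by TMT10plex mass spectrometry, three independent biological replicates.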
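Throughout, for solubility change mitosis vs G1/S (difference of NP-40 vs SDS log2 ratios): synchronized HeLa Kyoto cells (double thymidine block for G1/S, nocodazole release for mitosis), protein amounts in NP-40 versus SDS lysates quantified by mass spectrometry, three biological replicates.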
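Throughout, for solubility in G1/S (NP-40 vs SDS abundance): HeLa Kyoto cells arrested at G1/S by double thymidine block, proteins quantified by TMT10plex mass spectrometry in mild NP-40 versus SDS extracts, three biological replicates.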
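Throughout, for thermal stability score vs G1/S (z-score of summed log2 fold changes over temperatures): synchronized HeLa Kyoto cells, proteins quantified by TMT10plex mass spectrometry, three biological replicates, mitosis taken 0.5 h after nocodazole release, G1/S directly after double thymidine block.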

Turning to “MGSPEDDLIGIPFPDHSSELLSCLNEQRQLGHLCDLTIRTQGLEYRTHRAVLAACSHYFKKLFTEGGGGAVMGAGGSGTATGGAGAGVCELDFVGPEALGALLEFAYTATLTTSSANMPAVLQAARLLEIPCVIAACMEILQGSGLEAPSPDEDDCERARQYLEAFATATASGVPNGEDSPPQVPLPPPPPPPPRPVARRSRKPRKAFLQTKGARANHLVPEVPTVPAHPLTYEEEEVAGRVGSSGGSGPGDSYSPPTGTASPPEGPQSYEPYEGEEEEEELVYPPAYGLAQGGGPPLSPEELGSDEDAIDPDLMAYLSSLHQDNLAPGLDSQDKLVRKRRSQMPQECPVCHKIIHGAGKLPRHMRTHTGEKPFACEVCGVRFTRNDKLKIHMRKHTGERPYSCPHCPARFLHSYDLKNHMHLHTGDRPYECHLCHKAFAKEDHLQRHLKGQNCLEVRTRRRRKDDAPPHYPPPSTAAASPAGLDLSNGHLDTFRLSLARFWEQSAPTGPPVSTPGPPDDDEEEGAPTTPQAEGAMESS [ZBTB7B]”, in the data set on HeLa Kyoto [1], the “solubility change mitosis (log2)” value is 0.171. Moreover, the values for the melting temperature in the data set on HeLa Kyoto [2] (cell cycle stage: G1/S) and in the data set on HeLa Kyoto [2] (cell cycle stage: mitosis) were 54.7 °C and 55 °C, respectively. For the same sequence, in the data set on HeLa Kyoto [3], the “solubility in G1/S (log2)” value is -0.127. In addition, the thermal stability score in the data set with HeLa Kyoto [4] (setting [5]) stood at 1.42; with HeLa Kyoto [4] (cell cycle stage: mitosis) it was 0.814.

Take “MGSPLRFDGRVVLVTGAGAGLGRAYALAFAERGALVVVNDLGGDFKGVGKGSLAADKVVEEIRRRGGKAVANYDSVEEGEKVVKTALDAFGRIDVVVNNAGILRDRSFARISDEDWDIIHRVHLRGSFQVTRAAWEHMKKQKYGRIIMTSSASGIYGNFGQANYSAAKLGLLGLANSLAIEGRKSNIHCNTIAPNAGSRMTQTVMPEDLVEALKPEYVAPLVLWLCHESCEENGGLFEVGAGWIGKLRWERTLGAIVRQKNHPMTPEAVKANWKKICDFENASKPQSIQESTGSIIEVLSKIDSEGGVSANHTSRATSTATSGFAGAIGQKLPPFSYAYTELEAIMYALGVGASIKDPKDLKFIYEGSSDFSCLPTFGVIIGQKSMMGGGLAEIPGLSINFAKVLHGEQYLELYKPLPRAGKLKCEAVVADVLDKGSGVVIIMDVYSYSEKELICHNQFSLFLVGSGGFGGKRTSDKVKVAVAIPNRPPDAVLTDTTSLNQAALYRLSGDWNPLHIDPNFASLAGFDKPILHGLCTFGFSARRVLQQFADNDVSRFKAIKARFAKPVYPGQTLQTEMWKEGNRIHFQTKVQETGDIVISNAYVDLAPTSGTSAKTPSEGGKLQSTFVFEEIGRRLKDIGPEVVKKVNAVFEWHITKGGNIGAKWTIDLKSGSGKVYQGPAKGAADTTIILSDEDFMEVVLGKLDPQKAFFSGRLKARGNIMLSQKLQMILKDYAKL [HSD17B4]”: the “solubility change mitosis (log2)” value in the data set with HeLa Kyoto [1] is -0.0933. Also, the figures for the melting temperature in the data set on HeLa Kyoto [2] (cell cycle stage: G1/S) and in the data set with HeLa Kyoto [2] (cell cycle stage: mitosis) were 54.2 °C and 54.1 °C, respectively. For the same sequence, the “solubility in G1/S (log2)” value with HeLa Kyoto [3] came out at 0.00461. The figures for the thermal stability score in the data set on HeLa Kyoto [4] (setting [5]) and with HeLa Kyoto [4] (cell cycle stage: mitosis) were 0.589 and 0.868, respectively.

In the case of “MGVQPPNFSWVLPGRLAGLALPRLPAHYQFLLDLGVRHLVSLTERGPPHSDSCPGLTLHRLRIPDFCPPAPDQIDRFVQIVDEANARGEAVGVHCALGFGRTGTMLACYLVKERGLAAGDAIAEIRRLRPGSIETYEQEKAVFQFYQRTK [DUSP23]”, the “solubility change mitosis (log2)” value in the data set with HeLa Kyoto [1] is -0.112. Also, the figures for the melting temperature in the data set on HeLa Kyoto [2] (cell cycle stage: G1/S) and with HeLa Kyoto [2] (cell cycle stage: mitosis) were 52.5 °C and 52.9 °C, respectively. Also, the “solubility in G1/S (log2)” value with HeLa Kyoto [3] was determined as 0.00547. Moreover, the thermal stability score with HeLa Kyoto [4] (setting [5]) is 0.571; in the data set with HeLa Kyoto [4] (cell cycle stage: mitosis), -0.468.

Take “MGVRGLQGFVGSTCPHICTVVNFKELAEHHRSKYPGCTPTIVVDAMCCLRYWYTPESWICGGQWREYFSALRDFVKTFTAAGIKLIFFFDGMVEQDKRDEWVKRRLKNNREISRIFHYIKSHKEQPGRNMFFIPSGLAVFTRFALKTLGQETLCSLQEADYEVASYGLQHNCLGILGEDTDYLIYDTCPYFSISELCLESLDTVMLCREKLCESLGLCVADLPLLACLLGNDIIPEGMFESFRYKCLSSYTSVKENFDKKGNIILAVSDHISKVLYLYQGEKKLEEILPLGPNKALFYKGMASYLLPGQKSPWFFQKPKGVITLDKQVISTSSDAESREEVPMCSDAESRQEVPMCTGPESRREVPVYTDSEPRQEVPMCSDPEPRQEVPTCTGPESRREVPMCSDPEPRQEVPMCTGPEARQEVPMYTDSEPRQEVPMYTDSEPRQEVPMYTGSEPRQEVPMYTGPESRQEVPMYTGPESRQEVLIRTDPESRQEIMCTGHESKQEVPICTDPISKQEDSMCTHAEINQKLPVATDFEFKLEALMCTNPEIKQEDPTNVGPEVKQQVTMVSDTEILKVARTHHVQAESYLVYNIMSSGEIECSNTLEDELDQALPSQAFIYRPIRQRVYSLLLEDCQDVTSTCLAVKEWFVYPGNPLRHPDLVRPLQMTIPGGTPSLKILWLNQEPEIQVRRLDTLLACFNLSSSREELQAVESPFQALCCLLIYLFVQVDTLCLEDLHAFIAQALCLQGKSTSQLVNLQPDYINPRAVQLGSLLVRGLTTLVLVNSACGFPWKTSDFMPWNVFDGKLFHQKYLQSEKGYAVEVLLEQNRSRLTKFHNLKAVVCKACMKENRRITGRAHWGSHHAGRWGRQGSSYHRTGSGYSRSSQGQPWRDQGPGSRQYEHDQWRRY [FAM120B]”: the “solubility change mitosis (log2)” value with HeLa Kyoto [1] was -0.0624. For the same sequence, the melting temperature with HeLa Kyoto [2] (cell cycle stage: G1/S) came out at 50.2 °C; in the data set on HeLa Kyoto [2] (cell cycle stage: mitosis), 49.1 °C. Also, the “solubility in G1/S (log2)” value in the data set with HeLa Kyoto [3] was -0.319. Also, the thermal stability score in the data set with HeLa Kyoto [4] (setting [5]) is 1.29; with HeLa Kyoto [4] (cell cycle stage: mitosis) it was 1.3.

As to “MHGRLKVKTSEEQAEAKRLEREQKLKLYQSATQAVFQKRQAGELDESVLELTSQILGANPDFATLWNCRREVLQQLETQKSPEELAALVKAELGFLESCLRVNPKSYGTWHHRCWLLGRLPEPNWTRELELCARFLEVDERNFHCWDYRRFVATQAAVPPAEELAFTDSLITRNFSNYSSWHYRSCLLPQLHPQPDSGPQGRLPEDVLLKELELVQNAFFTDPNDQSAWFYHRWLLGRADPQDALRCLHVSRDEACLTVSFSRPLLVGSRMEILLLMVDDSPLIVEWRTPDGRNRPSHVWLCDLPAASLNDQLPQHTFRVIWTAGDVQKECVLLKGRQEGWCRDSTTDEQLFRCELSVEKSTVLQSELESCKELQELEPENKWCLLTIILLMRALDPLLYEKETLQYFQTLKAVDPMRATYLDDLRSKFLLENSVLKMEYAEVRVLHLAHKDLTVLCHLEQLLLVTHLDLSHNRLRTLPPALAALRCLEVLQASDNAIESLDGVTNLPRLQELLLCNNRLQQPAVLQPLASCPRLVLLNLQGNPLCQAVGILEQLAELLPSVSSVLT [RABGGTA]”, the “solubility change mitosis (log2)” value in the data set on HeLa Kyoto [1] is -0.067. Further, the figures for the melting temperature with HeLa Kyoto [2] (cell cycle stage: G1/S) and in the data set on HeLa Kyoto [2] (cell cycle stage: mitosis) were 53.8 °C and 53.3 °C, respectively. In the data set on HeLa Kyoto [3], the “solubility in G1/S (log2)” value worked out at 0.0201. Also, the figures for the thermal stability score in the data set with HeLa Kyoto [4] (setting [5]) and in the data set with HeLa Kyoto [4] (cell cycle stage: mitosis) were -0.496 and -1.06, respectively.
